Test results taken from the DeepSol protein solubility set.

Assay: soluble on expression in E. coli; label from the status in PepcDB or PDB records

Sequence	soluble on expression in E. coli
MSLDSLGAINKIQDFLQKQEYKTLEYNLTTTEVVMENVTAFWEEGFGELFEKAKQNNNNRKTSNGDDSLFFSNFSLLGTPVLKDINFKIERGQLLAVAGSTGAGKTSLLMMIMGELEPSEGKIKHSGRISFCSQFSWIMPGTIKENIIFGVSYDEYRYRSVIKACQLEEDISKFAEKDNIVLGEGGITLSGGQRARISLARAVYKDADLYLLDSPFGYLDVLTEKEIFESCVCKLMANKTRILVTSKMEHLKKADKILILMKVAAIFMGHFQNSKIYSQTLAQNSWDVILSTNLVQKEEIQS	soluble
MTDFFRFPNTPHLLWLGQGQPRDDKILSDAEIAALLQDEVLIEEKLDGANLGISLDEHGELRAQNRGQYLPQPFSGQFSRLNSWLGQHGEILKHTLTPEMILFGEWCAARHSLDYNKLPDWFLLFDVYDREAGKFWSVERRNQLAQKLNITTVPLLKRTKITCNQLVQLLDDAQSRYRSGKVEGIVIRCDSPLWCESRAKLVNREFVQAIEDHWRSRSIEWNLVHAGSVKRS	not soluble
MKIMIIGATGMAGQALVTTALNRGHQVVAVARSAEKLATLPSNPNLTSIVRDAFNLTTTDLSAVDAVVDAFATAPDHAYLHVDLATHLISQLRETTTPRVAFILGAGSLTTGDDAHLFVHDLEQDPHAASFISVPQNQLKELTFLRDVDNVNWFGVSPAADFHPGEAQPALLGTDTLLFNDQQQSGTSAGTMAVAILDELENPLEHHHHHH	not soluble
STMPLAELGARLYREKACFSCHSIDGSRLVGPSFKGLYGSTRTFEDGTTAVADENYLRESILQPGAKVVQGYPNVMPASYASLSEREVAALIEFIKQQQ	soluble
MYNNSAPYLNHSSLNTVRKKVVTVRRVLPSLPPPPPPPPSLYPPCSVFKVPYIPQRVYRSINSTLYNNQSFASSSRGFYRKQKPIPKSHPKHQEHHHHAKASVSTPVHSSSTSRNSSVAPTPQRTVSTSSSSSSAATSARVSEDESDSDSTPGEVQRRKTSVLSNDKRRRRASFSSTSIQSSPERQRDVSSSSRTSSSSSTSSMKQEETADEKSRKRKLIMSSDESSTTGSTATSVVSSRQSSLEPQQEKTDGEPPKKKSQTDFISERVSKIEGEERPLPEPVETSGPIIGDSSYLPYKIVHWEKAGIIEMNLPANSIRAHEYHPFTTEHCYFGIDDPRQPKIQIFDHSPCKSEPGSEPLKITPAPWGPIDNVAETGPLIYMDVVTAPKTVQKKQKPRKQVFEKDPYEYYEPPPTKRPAPPPRFKKTFKPRSEEEKKKIIGDCEDLPDLEDQWYLRAALNEMQSEVKSADELPWKKMLTFKEMLRSEDPLLRLNPIRSKKGLPDAFYEDEELDGVIPVAAGCSRARPYEKMTMKQKRSLVRRPDNESHPTAIFSERDETAIRHQHLASKDMRLLQRRLLTSLGDANNDFFKINQLKFRKKMIKFARSRIHGWGLYAMESIAPDEMIVEYIGQTIRSLVAEEREKAYERRGIGSSYLFRIDLHHVIDATKRGNFARFINHSCQPNCYAKVLTIEGEKRIVIYSRTIIKKGEEITYDYKFPIEDDKIDCLCGAKTCRGYLN	soluble
MSLKEFDFIKRYLQTGTDNDVVLGIGDDAAIVRPREGFDLCFSADMLLKDRHFFADVKPEDLAWKVLAVNISDMAAMGAIPRWVLLSAALPELDEVWLKRFCGSFFGLAKKFGVTLIGGDTTKGDMAFNVTIIGELPKGRALRRDAAVAGDDIWVSGRIGMAAAALNCRLKRCVLPDEVFAECEQKLLHPEPRVGLGLALLPFARAAQDVSDGLAQDLGHILTASGKGAEIWADSLPSLSVLKDILPRAQWLSYTLAGGDDYELVFTAPESCRSRVFDAAERCGVPVTRIGKINGGCRLKVLDADGRELELHSLGFDHFGEGHHHHHH	soluble
MGSDKIHHHHHHMFRYDVISNKKNVNPHILALHHHNEKTWISSSSGGVFASLTDYALRQAGVIFGAIYDDNFVVVHRRAETQEDTLKFRGSKYVQSNLTGIYQQVKFYLQEQRFVLFSGTPCQVEGLKGYLQRSYDNLLTVDILCHGVPSPRVFHDYLNFIRQNSDFHFTGIFMKDKTFGWGYQNSRLFFGKNASQFNTVLSRLWNDIFYSHLTTRPSCHACRFTNYLRPGDITIGDFWGIEKHHPQFTDSRGISLIMLNNTKAEIVWNHIKDDFNYLESNIKECIQPNLKYPVPEPVNKATFWQDYASMPFFQIMNKYYRITHQDLLKNRFYMILLTLKKRFT	not soluble
MSLKEVRYAMIHDESRCNGCNICARACRKTNHVPAQGSRLSIAHIPVTDNDNETQYHFFRQSCQHCEDAPCIDVCPTGASWRDEQGIVRVEKSQCIGCSYCIGACPYLVRYLNPVTKVADKCDFCAESRLAKGFPPICVSACPEHALIFGREDSPEIQAWLQDNKYYQYQLPGTGKPHLYRRFGQHLIKKENEGHHHHHH	not soluble
MELDVKFEEKDLQHIRQVFSRLRGLGKSDGLTRKMASVLQEDAEDAFAMERTPDGVKWRDLSPKYKKQRYNKGYTGNILQRHGDLAGSLNIAYGDNFAAVGVAEHYGEYHQLGTKKMSARPFLGISEDGVEEIKEILNNAIRRALRD	not soluble
MGSDKIHHHHHHMKPWQGISEFAAVAEQQSFTAAARQLRLSVAQVSRNIAALEHRLQMQLLYRSTRSVSLTEEGKLYLPHCQHLVASLRDADQAIQQRTQQPQGLIRITAPVYYGERFIAPLLNDFLHIYPECRLDFQLTNEQVDLIEGSYDVAIRLGQLGNPRLRARKLGSRRHFVVGSPAYFEEFGRPQDINALDAHRCFTGTVRQWRFQVEGKLETVRPESYLHCNNGLALRDAAMKGLGLAMLPDYYVTDSLANGQLEEVLADYRQPDDGIWALYPENRQVIPKVRVLLDYLSGNLSGNLSGKFNTGEIEN	not soluble
MIRYMIKESRMELIEENMKHLQDRLKTAKENEMSAKTVRHDFRHHNQNIATMIQKGETNEALHYIEQYNESLDAARTKEFCSHVTVNAILSSFYIKAQNDGICISIEADTQEGTNISDMDFVAILSNILENAVNGCKECGAHGKINVNIRTVSDKTVIVCSNSCKPGLVIENNMIKHRGIGIESMLTAARKYDGDISYRLENDVLTLCVILKK	not soluble
MAFKLPNLPYAYDALEPYIDQRTMEFHHDKHHNTYVTKLNATVEGTELEHQSLADMIANLDKVPEAMRMSVRNNGGGHFNHSLFWEILSPNSEEKGGVIDDIKAQWGTLDEFKNEFANKATTLFGSGWTWLVVNDGKLEIVTTPNQDNPLTEGKTPILLFDVWEHAYYLKYQNKRPDYMTAFWNIVNWKKVDELYQAAK	not soluble
MTNLFVRSGISFVDRSEVLTYIGNEMLAKGVVHDTWPQALIAREAEFPTGIMLEQHAIAIPHCEAIHAKSSAIYLLRPTNKVHFQQADDDNDVAVSLVIALIVENPQQQLKLLRCLFGKLQQPDIVETLITLPETQLKEYFTKYVLDSDE	not soluble
GMQQPTASVVSYVAEYHKATETTMGRYKKVIEITGHDEVAAKLLEGLIDAGTRYFSKVVEMEHRMASARFRLDGEELRELTETLDRSRRLAHESLISSLHVFNRYIVKEYGEELKEAGIEGGIFPKPEANRDRIAIADWAGELLTGIYENRHR	soluble
MRNKADNKKRNFLTHSEIESLLKAANTGPHATRNYCLILLCFIHGFRASEICRLRISDIDLKAKCIYIHRLKKGFSTTHPLLNKEVQALKNWLSIRTSYPHAESEWVFLSRKGNPLSRQQFYHIISTSGGNAGLSLEIHPHMLRYSCGFALANMGIDTRLI	not soluble
MGSDKIHHHHHHMQTAARRSFDYDMPLIQTPTSACQIRQAWAKVADTPDRETADRLKDEIKALLKETNAVLVAHYYVDPLIQDLALETGGCVGDSLEMARFGAEHEAGTLVVAGVRFMGESAKILCPEKTVLMPDLEAECSLDLGCPEEAFSAFCDQHPDRTVVVYANTSAAVKARADWVVTSSVALEIVSYLKSRGEKLIWGPDRHLGDYICRETGADMLLWQGSCIVHNEFKGQELAALKAEHPDAVVLVHPESPQSVIELSDVVGSTSKLLKAAVSRPEKKFIVATDLGILHEMQKQAPDKQFIAAPTAGNGGSCKSCAFCPWMAMNSLGGIKYALTSGRNEILLDRKLGEAAKLPLQRMLDFAAGLKRGDVFNGMGPA	not soluble
MTPIHVVGIGLDGLPGLAAAVQQIIDSATLLVGSDRHLQLIPQGDTPRLSLGNFNASLKAIQTHLDTTANPQVVILTSGDPLFYGLGRWLLEVFAPDQLTFHPHLSAVQLAFSRLKLPWQDAVIYSAHGRDLAGLVPLLQRGVEKIAIYTDGEANIAAISRLYQALHIPVTYRAWVCQALGSAEEAILPWDLAQPVTALPPVHPLNLVVLLRQPQRLPPREQPIVGLGDDQFFTFADRPSLMTKREVRVLVLAELALTSTVEIVWDIGAGTGSVAVEIARLAPQATIYAIEKTAIGFQLIERNRRAFGLANLIPLQGTAPQCLRDLPPPDRVFIGGSGAQLLANLDYCWSHLNAGGRLVLAIATLEHQGQVLHWCQTHQINPQVLQVQLSRSVPLGQGHRLHPLNPVTLMTLTQGLEHHHHHH	not soluble
MCYHLIIDSFIDRISRMHTQRGLEVTTGSIEAVDSINYFHEQVLSSGQNAIQILDSAKKHTDNLLIQTYAAAFYLYAQEDVANEQASDYLQSAFRLLTSANEREKLIFEAVTNWSKRDYANAISLLVTLLERYPRDTLALKFMEWLFYCTGQAFNAEYFLKVCDKCAPENQDESHFLAIHSFALELCGQYSKAKEMAEEAITMNLLTPWAHHTLAHVHLLTSDITGGINRLRDLQKTWEDILPLLKGHNTWHLALFYLANRNEEEVKKLYPHISGALPDTVLEQLDTISLLWRMDMAGLPQDRLLNQVVDHLSTHPLEYYTGFTNAHFIYCLVKSGYKNEADESLKRMKFYACSPSSDALWGDVVLPLCQGIYAFADADYKTALMLMEPVIGECAQLGGSDAQIELFFQTYLLVLIHNKQKDKALQFFTEHLKYYNNTPLSDWWFQSANKA	not soluble
MISRPESSLSGLESSQEVQKKTWNPRNYSARLTENIGLPLILLEKHNPWPAYVAYISPAVTRITEKGWARDLEYIYAAEKNGKPVKRSKHSAVLLKRRKPSKPSELMLKETLSETMLPTWECSTIYVSPTFVPEPAQLQMDVREGPTSNYNKIIFSKRPAMRKLPFGLLQASKEMHTKD	soluble
MNPPDISVLIVSFNTRDLLRRCLASLRDQAGGTGIETIVVDNASRDGSADMVEAEFPDVRLIRSPVNLGFGNANNLAFTQSRGRYLVLLNSDACLAPGLLDAASKRMDACPDVGMAGGRLVGPEGGWQPSARMFPSLLNEFLVLSGLAHRYPKSRLFGRFDRTWADPSEEAGVDWVPGAFAILRRDLIDRIGFFDPRFFLYYEEVDLCRRIRAAGCKIMYWPELVITHLGGESAKTLSDMEFSSHASQLTLWRMRSQALYYRKWHGLALAWSAKTLEQLWHWLRALRHRRSAPAKAHDSEALIRLWNRAWKETEGGRVSPPQPWLEHHHHHH	not soluble
MEGPLSKWTNMVHGWQYRWFKIENDTLLYYTSREKMLKGQQRGQIRLTGAVVGIDGENNSLFTITVEGKTFHMQGRDLRERNQWVRILENSIRASSGYAKNVSVGTTPSQHFKQRTEEANEFLKTLVEKVKALEQLKSGERAVDEKKTIDSLIAASNNLTNNVKHAIIYLQMAQARLDPNMKTEKLMFTHPDLNEKPSSRETPGTVSDSTQTSTDKPISGIQHLDHLKPQRAESYASSDEEEFYDADEELIDLDNFESEKSGQESGDSNRTSDAAIMSSDEDGYDFGDSNEDFDEIYNNAEEHDIGNVQQDHGSVLMHLLSQVSVGMDLTKVTLPTFILERRSLLEMYADFFAHPDLFIATNGNDSAEKRMIAVVRYYLNSFYAARKSGVAKKPYNAILGETFRCRYSVPNSSLSGKKTESGPWPGSDEKQLTFIAEQVSHHPPISAFYAEMPSEGISFNAHIYTKSSFLGLSIGVASIGEGILTLHNYGDEQYTITFPSGYGRSIMSTPWFEFGGKVKVECEKTGYRADIEFLTKPFFGGKPHRIQGSICRDGAKKPVLTLRGEWNGTMYAKTQNGEEYVFVDVKAKPEVKKECVPVMQQGKRESRRLWRHVTAALLRNRIQTATTSKRFIEQRQRKEAKERLESGEKWTPLLFDTTDKDGEWMYKQKFGVRKAV	not soluble
